Measured values published in the supplement of paper PMC11246515.
± gives the standard deviation of the averaged measurements.

Test: total protein half-life in vivo (active degradation + dilution); higher = more stable protein
[1] = E. coli NCM3722 delta-clpP delta-lon delta-hslV, growth: N-lim chemostat, doubling time 6 h
[2] = E. coli NCM3722 delta-clpP, growth: N-lim chemostat, doubling time 6 h
[3] = E. coli NCM3722 delta-smpB, growth: N-lim chemostat, doubling time 6 h
[4] = wild type E. coli NCM3722, growth: N-lim chemostat, doubling time 12 h
[5] = E. coli NCM3722 delta-hslV, growth: N-lim chemostat, doubling time 6 h
[6] = E. coli NCM3722 delta-lon, growth: N-lim chemostat, doubling time 6 h
[7] = wild type E. coli NCM3722, growth: C-lim chemostat, doubling time 3 h
[8] = wild type E. coli NCM3722, growth: C-lim chemostat, doubling time 6 h
[9] = wild type E. coli NCM3722, growth: C-lim chemostat, doubling time 12 h
[10] = wild type E. coli NCM3722, growth: N-lim chemostat, doubling time 6 h
[11] = wild type E. coli NCM3722, growth: P-lim chemostat, doubling time 6 h
[12] = wild type E. coli NCM3722, growth: P-lim chemostat, doubling time 12 h

| Sequence | total protein half-life in vivo [1] [h] | total protein half-life in vivo [2] [h] | total protein half-life in vivo [3] [h] | total protein half-life in vivo [4] [h] | total protein half-life in vivo [5] [h] | total protein half-life in vivo [6] [h] | total protein half-life in vivo [7] [h] | total protein half-life in vivo [8] [h] | total protein half-life in vivo [9] [h] | total protein half-life in vivo [10] [h] | total protein half-life in vivo [11] [h] | total protein half-life in vivo [12] [h] |
| --- | --- | --- | --- | --- | --- | --- | --- | --- | --- | --- | --- | --- |
| MATVNKQAIAAAFGRAAAHYEQHADLQRQSADALLAMLPQRKYTHVLDAGCGPGWMSRHWRERHAQVTALDLSPPMLVQARQKDAADHYLAGDIESLPLATATFDLAWSNLAVQWCGNLSTALRELYRVVRPKGVVAFTTLVQGSLPELHQAWQAVDERPHANRFLPPDEIEQSLNGVHYQHHIQPITLWFDDALSAMRSLKGIGATHLHEGRDPRILTRSQLQRLQLAWPQQQGRYPLTYHLFLGVIARE | 4.79 ± 0.22 | 2.85 ± 0.37 | 0.556 | 1.13 |  |  |  |  |  |  |  |  |
| MWYQKTLTLSAKSRGFHLVTDEILNQLADMPRVNIGLLHLLLQHTSASLTLNENCDPTVRHDMERFFLRTVPDNGNYEHDYEGADDMPSHIKSSMLGTSLVLPVHKGRIQTGTWQGIWLGEHRIHGGSRRIIATLQGE [P0AF48] | 4.54 ± 0.35 | > 8 | 4.33 ± 0.17 | 6.66 ± 0.43 | 4.19 | 4.31 ± 0.8 | 2.96 ± 0.08 | 4.74 ± 0.15 | 11.9 ± 1.5 | 3.98 ± 0.048 | 5.51 ± 0.073 | 11.3 ± 0.81 |
| MKNDVISPEFDENGRPLRRIRSFVRRQGRLTKGQEHALENYWPVMGVEFSEDMLDFPALFGREAPVTLEIGFGMGASLVAMAKDRPEQDFLGIEVHSPGVGACLASAHEEGLSNLRVMCHDAVEVLHKMIPDNSLRMVQLFFPDPWHKARHNKRRIVQVPFAELVKSKLQLGGVFHMATDWEPYAEHMLEVMSSIDGYKNLSESNDYVPRPASRPVTKFEQRGHRLGHGVWDLMFERVK [P0A8I5] | 5.11 ± 0.029 | 4.82 | 4.18 ± 0.61 | 7.49 ± 1.2 | 7.09 |  | 2.73 | 4.88 ± 0.4 | 8.12 ± 0.26 | 4.58 ± 0.17 | 3.77 | 8.11 ± 0.11 |
| MAINFSPKVGEILECNFGNYPVSQNGPFSTTYYDGRIPPEMIKNRLVVVLNGKINGNACIVVPLSTTRDQDKLKRGMHVEIASNVINDLQFFDQQIRWAKADLVQQVSRNRLNRARTYRGYLNQCLPHELVADIQRAVIKSINAISLIN |  |  |  |  |  |  |  | 6.12 | 8.7 ± 2 |  | 4.05 | 8.56 ± 0.1 |
| MAIDENKQKALAAALGQIEKQFGKGSIMRLGEDRSMDVETISTGSLSLDIALGAGGLPMGRIVEIYGPESSGKTTLTLQVIAAAQREGKTCAFIDAEHALDPIYARKLGVDIDNLLCSQPDTGEQALEICDALARSGAVDVIVVDSVAALTPKAEIEGEIGDSHMGLAARMMSQAMRKLAGNLKQSNTLLIFINQIRMKIGVMFGNPETTTGGNALKFYASVRLDIRRIGAVKEGENVVGSETRVKVVKNKIAAPFKQAEFQILYGEGINFYGELVDLGVKEKLIEKAGAWYSYKGEKIGQGKANATAWLKDNPETAKEIEKKVRELLLSNPNSTPDFSVDDSEGVAETNEDF [P0A7G6] | 6.6 ± 1 | 5.85 ± 0.55 | 3.32 ± 0.036 | 4.94 ± 0.44 | 3.37 ± 0.057 | 3.272 ± 0.025 | 2.86 ± 0.031 | 4.82 ± 0.084 | 11.7 ± 4.1 | 3.4281 ± 0.0021 | 4.77 ± 0.2 | 9.63 ± 0.48 |
| MKKLTVAALAVTTLLSGSAFAHEAGEFFMRAGSATVRPTEGAGGTLGSLGGFSVTNNTQLGLTFTYMATDNIGVELLAATPFRHKIGTRATGDIATVHHLPPTLMAQWYFGDASSKFRPYVGAGINYTTFFDNGFNDHGKEAGLSDLSLKDSWGAAGQVGVDYLINRDWLVNMSVWYMDIDTTANYKLGGAQQHDSVRLDPWVFMFSAGYRF [P0A915] | 6.65 ± 0.21 |  | 6.21 ± 1.9 | > 16 | 6.45 ± 0.39 |  | 3.53 ± 0.14 | 7.52 ± 0.61 | 12.6 ± 1.5 | 7.26 | 6.15 | 15.44 ± 0.068 |
| MLEILYQDEWLVAVNKPSGWLVHRSWLDRDEKVVVMQTVRDQIGQHVFTAHRLDRPTSGVLLMGLSSEAGRLLAQQFEQHQIQKRYHAIVRGWLMEEAVLDYPLVEELDKIADKFAREDKGPQPAVTHYRGLATVEMPVATGRYPTTRYGLVELEPKTGRKHQLRRHLAHLRHPIIGDSKHGDLRQNRSGAEHFGLQRLMLHASQLSLTHPFTGEPLTIHAGLDDTWMQALSQFGWRGLLPENERVEFSAPSGQDGEISS [P0AA41] | 4.78 ± 0.18 | 4.49 ± 0.16 | 4.34 ± 0.19 | 6.98 | 4.87 ± 0.88 | 4.49 | 3 ± 0.28 |  | 11.8 ± 0.17 | 5.27 ± 1.3 | 5.28 ± 0.23 | 10.91 ± 0.044 |
| MRKIALILAMLLIPCVSFAGLLGSSSSTTPVSKEYKQQLMGSPVYIQIFKEERTLDLYVKMGEQYQLLDSYKICKYSGGLGPKQRQGDFKSPEGFYSVQRNQLKPDSRYYKAINIGFPNAYDRAHGYEGKYLMIHGDCVSIGCYAMTNQGIDEIFQFVTGALVFGQPSVQVSIYPFRMTDANMKRHKYSNFKDFWEQLKPGYDYFEQTRKPPTVSVVNGRYVVSKPLSHEVVQPQLASNYTLPEAK [P0AA99] | 0.797 | 0.657 ± 0.077 | 0.689 ± 0.063 | 1.54 ± 0.73 | 0.844 | 0.64 | 0.313 ± 0.18 | 1.37 | 1.81 | 0.909 ± 0.048 | 0.858 ± 0.34 | 1.45 ± 0.56 |
| MISVTLSQLTDILNGELQGADITLDAVTTDTRKLTPGCLFVALKGERFDAHDFADQAKAGGAGALLVSRPLDIDLPQLIVKDTRLAFGELAAWVRQQVPARVVALTGSSGKTSVKEMTAAILSQCGNTLYTAGNLNNDIGVPMTLLRLTPEYDYAVIELGANHQGEIAWTVSLTRPEAALVNNLAAAHLEGFGSLAGVAKAKGEIFSGLPENGIAIMNADNNDWLNWQSVIGSRKVWRFSPNAANSDFTATNIHVTSHGTEFTLQTPTGSVDVLLPLPGRHNIANALAAAALSMSVGATLDAIKAGLANLKAVPGRLFPIQLAENQLLLDDSYNANVGSMTAAVQVLAEMPGYRVLVVGDMAELGAESEACHVQVGEAAKAAGIDRVLSVGKQSHAISTASGVGEHFADKTALITRLKLLIAEQQVITILVKGSRSAAMEEVVRALQENGTC | 4.74 ± 0.18 | 4.41 ± 0.27 | 4.68 ± 0.057 | 7.03 ± 0.19 | 5.24 ± 0.92 | 4.44 ± 0.34 | 3.37 ± 0.67 | 6.24 ± 1.3 | 9.83 ± 0.28 | 4.48 ± 0.31 | 5.79 ± 0.27 | 10.2 ± 1.7 |
| MQIVMFDRQSIFIHGMKISLQQRIPGVSIQGASQADELWQKLESYPEALVMLDGDQDGEFCYWLLQKTVVQFPEVKVLITATDCNKRWLQEVIHFNVLAIVPRDSTVETFALAVNSAAMGMMFLPGDWRTTPEKDIKDLKSLSARQREILTMLAAGESNKEIGRALNISTGTVKAHLESLYRRLEVKNRTQAAMMLNISS | 4.46 |  |  |  |  |  |  |  |  |  |  |  |
| MGQRIPVTLGNIAPLSLRPFQPGRIALVCEGGGQRGIFTAGVLDEFMRAQFNPFDLYLGTSAGAQNLSAFICNQPGYARKVIMRYTTKREFFDPLRFVRGGNLIDLDWLVEATASQMPLQMDTAARLFDSGKSFYMCACRQDDYAPNYFLPTKQNWLDVIRASSAIPGFYRSGVSLEGINYLDGGISDAIPVKEAARQGAKTLVVIRTVPSQMYYTPQWFKRMERWLGDSSLQPLVNLVQHHETSYRDIQQFIEKPPGKLRIFEIYPPKPLHSIALGSRIPALREDYKLGRLCGRYFLATVGKLLTEKAPLTRHLVPVVTPESIVIPPAPVANDTLVAEVSDAPQANDPTFNNEDLA | 5.99 ± 1.5 | 1.8805 ± 0.0012 | 1.185 ± 0.0061 | 1.77 ± 0.024 | 1.31 ± 0.025 | 1.89 ± 0.25 | 1.89 ± 0.15 | 3.889 ± 0.011 | 4.59 ± 0.59 | 1.45 ± 0.16 | 2.12 ± 0.31 | 4.69 ± 0.97 |
| MLIGYVRVSTNDQNTDLQRNALNCAGCELIFEDKISGTKSERPGLKKLLRTLSAGDTLVVWKLDRLGRSMRHLVVLVEELRERGINFRSLTDSIDTSTPMGRFFFHVMGALAEMERELIVERTKAGLETARAQGRIGGRRPKLTPEQWAQAGRLIAAGTPRQKVAIIYDVGVSTLYKRFPAGDK |  | 6.3 |  |  |  |  |  |  | 5.3 | 6.47 | 6.11 | 12.2 ± 1.1 |
| MRYRIFLLFFFALLPTSLVWAAPAQRAFSDWQVTCNNQNFCVARNTGDHNGLVMTLSRSAGAHTDAVLRIERGGLKSPEASEGEIAPRLLLDGEPLALSGDKWRISPWLLVTDDTATITAFLQMIQEGKAITLRDGDQTISLSGLKAALLFIDAQQKRVGSETAWIKKGDEPPLSVPPAPALKEVAVVNPTPTPLSLEERNDLLDYGNWRMNGLRCSLDPLRREVNVTALTDDKALMMISCEAGAYNTIDLAWIVSRKKPLASRPVRLRLPFNNGQETNELELMNATFDEKSRELVTLAKGRGLSDCGIQARWRFDGQRFRLVRYAAEPTCDNWHGPDAWPTLWITR | 4.79 ± 0.75 | 5.182 ± 0.02 | 5.55 ± 0.54 | 12.9 ± 3.8 | 6.05 ± 0.37 | 5.51 ± 0.2 | 3.44 ± 0.45 | 5.86 ± 1.1 | 10.4 ± 2 | 5.2 ± 0.56 | 4.81 ± 0.49 | 9.92 ± 0.41 |
| MSWQQFKHAWLIKFWAPIPAVIAAGILSTYYFGITGTFWAVTGEFTRWGGQLLQLFGVHAEEWGYFKIIHLEGSPLTRIDGMMILGMFGGCFAAALWANNVKLRMPRSRIRIMQAIIGGIIAGFGARLAMGCNLAAFFTGIPQFSLHAWFFAIATAIGSWFGARFTLLPIFRIPVKMQKVSAASPLTQKPDQARRRFRLGMLVFFGMLGWALLTAMNQPKLGLAMLFGVGFGLLIERAQICFTSAFRDMWITGRTHMAKAIIIGMAVSAIGIFSYVQLGVEPKIMWAGPNAVIGGLLFGFGIVLAGGCETGWMYRAVEGQVHYWWVGLGNVIGSTILAYYWDDFAPALATDWDKINLLKTFGPMGGLLVTYLLLFAALMLIIGWEKRFFRRAAPQTAKEIA |  | 1.86 | 3.67 |  | 2.16 |  |  | 4.44 ± 0.089 | 6.8 ± 1.4 | 3.69 | 2.95 |  |
| MSELNDLLTTRELQRWRLILGEAAETTLCGLDDNARQIDHALEWLYGRDPERLQRGERSGGLGGSNLTTPEWINSIHTLFPQQVIERLESDAVLRYGIEDVVTNLDVLERMQPSESLLRAVLHTKHLMNPEVLAAARRIVCQVVEEIMARLAKEVRQAFSGVRDRRRRSFIPLARNFDFKSTLRANLQHWHPQHGKLYIESPRFNSRIKRQSEQWQLVLLVDQSGSMVDSVIHSAVMAACLWQLPGIRTHLVAFDTSVVDLTADVADPVELLMKVQLGGGTNIASAVEYGRQLIEQPAKSVIILVSDFYEGGSSSLLTHQVKKCVQSGIKVLGLAALDSTATPCYDRDTAQALVNVGAQIAAMTPGELASWLAENLQS |  |  |  | 8.61 |  |  |  |  | 12.9 |  | 6.39 |  |
